{
  "source": "patent US20100092464A1",
  "about": "(Novartis, published 2010)",
  "binders": {"B1": {"name": "Human Engineered RX1 antibody heRX1-1.G2 (antibody, V domains shown)", "VH": "DVQLQESGPGLVKPSQTLSLTCTVTDYSITSDYAWNWIRQFPGKKLEWMGYISYSGSTSYNPSLKSRITISRDTSKNQFSLQLNSVTAADTATYYCASFDYAHAMDYWGQGTTVTVSS", "VL": "EIVLTQSPGTLSVSPGERVTFSCRASQSIGTSIHWYQQKTGQSPRLLIKYASERISGIPDRFSGSGSGTDFTLTISRVESEDFADYYCQQINSWPTTFGQGTKLEIKR"}, "B2": {"name": "Human Engineered RX1 antibody heRX1-1.G4 (antibody, V domains shown)", "VH": "B1 VH", "VL": "B1 VL"}, "B3": {"name": "M-CSF-specific murine monoclonal antibody RX1 (antibody, V domains shown)", "VH": "B1 VH with T17S, K44N, T69S, S71T, S80F, A88T, A89E, T113S", "VL": "not shown", "notes": "Hybridoma-derived and recombinant murine RX1 are written as one molecule; also called Murine RX1; rRX1(mouse)"}, "B4": {"name": "Human Engineered RX1 antibody heRX1-1.G1 (antibody, V domains shown)", "VH": "B1 VH", "VL": "B1 VL"}, "B5": {"name": "Fab fragment of recombinant murine RX1 (Fab, V domains shown)", "VH": "B1 VH with T17S, K44N, T69S, S71T, S80F, A88T, A89E, T113S", "VL": "not shown"}, "B6": {"name": "Human Engineered RX1 antibody heRX1-10.G2 (antibody, V domains shown)", "VH": "B1 VH with D1Q, T25S, K45G, T93V", "VL": "DIVLTQSPAFLSVTPGEKVTFTCQASQSIGTSIHWYQQKTDQAPKLLIKYASESISGIPSRFSGSGSGTDFTLTISSVEAEDAADYYCQQINSWPTTFGGGTKLEIKR", "notes": "Human Gamma-2 / Kappa constant regions"}, "B7": {"name": "Human Engineered RX1 antibody heRX1-8.G2 (antibody, V domains shown)", "VH": "B1 VH with D1Q, T25S, K45G, T93V", "VL": "B1 VL with S43A, R54S"}, "B8": {"name": "Human Engineered RX1 antibody heRX1-2.G2 (antibody, V domains shown)", "VH": "B1 VH with D1Q, T25S, K45G, T93V", "VL": "B1 VL"}, "B9": {"name": "Human Engineered RX1 antibody heRX1-5.G2 (antibody, V domains shown)", "VH": "B1 VH", "VL": "B1 VL with R54S"}, "B10": {"name": "Human Engineered RX1 antibody heRX1-7.G2 (antibody, V domains shown)", "VH": "B1 VH", "VL": "B1 VL with S43A, R54S"}, "B11": {"name": "Human Engineered RX1 antibody heRX1-4.G2 (antibody, V domains shown)", "VH": "B1 VH with D1Q, T25S, K45G, T93V", "VL": "B1 VL with S43A, I55A, S56T"}, "B12": {"name": "Human Engineered RX1 antibody heRX1-3.G2 (antibody, V domains shown)", "VH": "B1 VH", "VL": "B1 VL with S43A, I55A, S56T"}, "B13": {"name": "Human Engineered RX1 antibody heRX1-9.G2 (antibody, V domains shown)", "VH": "B1 VH", "VL": "B6 VL", "notes": "as for B6"}},
  "note": "Where a chain is given by its changes, count along the chain named.",
  "data": [
    {"target": "T1, human macrophage colony stimulating factor (M-CSF) (human, UniProt P09603 33-190, limits assumed)", "T1 sequence": "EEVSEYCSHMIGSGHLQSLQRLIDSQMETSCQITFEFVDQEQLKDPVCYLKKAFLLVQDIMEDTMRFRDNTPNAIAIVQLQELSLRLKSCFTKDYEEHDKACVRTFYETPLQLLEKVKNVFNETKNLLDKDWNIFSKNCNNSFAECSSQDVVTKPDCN", "assay": "cell-based or functional assay", "units": {"IC50 (read off the curve)": "µg/mL"}, "values": [
      {"binder": "B1", "IC50 (read off the curve)": "~0.03"},
      {"binder": "B2", "IC50 (read off the curve)": "~0.02"},
      {"binder": "B3", "IC50 (read off the curve)": "~0.02"},
      {"binder": "B4", "IC50 (read off the curve)": "~0.02"}
    ]},
    {"target": "T1, human macrophage colony stimulating …", "assay": "cell-based or functional assay", "remark": "another data set of the same source", "units": {"EC50 (M-CSF neutralisation)": "µg/mL"}, "values": [
      {"binder": "B3", "EC50 (M-CSF neutralisation)": 0.002}
    ]},
    {"target": "T1, human macrophage colony stimulating …", "assay": "cell-based or functional assay", "remark": "another data set of the same source", "units": {"IC50 (read off the curve)": "µg/mL"}, "values": [
      {"binder": "B1", "IC50 (read off the curve)": "~0.02"},
      {"binder": "B2", "IC50 (read off the curve)": "~0.01"},
      {"binder": "B3", "IC50 (read off the curve)": "~0.01"},
      {"binder": "B4", "IC50 (read off the curve)": "~0.01"}
    ]},
    {"target": "T1, human macrophage colony stimulating …", "assay": "cell-based or functional assay", "remark": "another data set of the same source", "units": {"IC50 (read off the curve)": "µg/mL"}, "values": [
      {"binder": "B3", "IC50 (read off the curve)": "~0.02"},
      {"binder": "B5", "IC50 (read off the curve)": "~2"}
    ]},
    {"target": "T1, human macrophage colony stimulating …", "assay": "cell-based or functional assay", "remark": "another data set of the same source", "units": {"IC50 Fold Loss (M-NFS-60 cell proliferation)": "fold"}, "values": [
      {"binder": "B1", "IC50 Fold Loss (M-NFS-60 cell proliferation)": 2.8},
      {"binder": "B6", "IC50 Fold Loss (M-NFS-60 cell proliferation)": 2.2},
      {"binder": "B7", "IC50 Fold Loss (M-NFS-60 cell proliferation)": 5.9},
      {"binder": "B8", "IC50 Fold Loss (M-NFS-60 cell proliferation)": 3.1},
      {"binder": "B9", "IC50 Fold Loss (M-NFS-60 cell proliferation)": 6.5},
      {"binder": "B10", "IC50 Fold Loss (M-NFS-60 cell proliferation)": 6.1},
      {"binder": "B11", "IC50 Fold Loss (M-NFS-60 cell proliferation)": 4.6},
      {"binder": "B12", "IC50 Fold Loss (M-NFS-60 cell proliferation)": 5.3},
      {"binder": "B13", "IC50 Fold Loss (M-NFS-60 cell proliferation)": 3.6}
    ]},
    {"target": "T1, human macrophage colony stimulating …", "assay": "M-CSF and antibody mixed at equal molar ratios; size exclusion chromatography or light scattering", "description": "The antigen-antibody complexes that the various Human Engineered™ RX1 antibodies formed with MCSF were studied by combining M-CSF and antibody in buffer at equal molar ratios, followed by analysis of the size of the antigen-antibody complex using size exclusion chromatography or light scattering. […] The heRX1-9.G2 or 1-10.G2 antibodies appeared to form 2:1 or 2:2 complexes with MCSF of about 400 kDa. The heRX1-1.G2 appeared to form large lattice aggregates with MCSF of greater than 2×10⁶ Da. The IgG1 and IgG4 constructs formed small complexes similar to that of murine parent RX1.", "units": {"size of antigen-antibody complex": "kDa"}, "values": [
      {"binder": "B3", "size of antigen-antibody complex": "~200"},
      {"binder": "B6", "size of antigen-antibody complex": "~400"},
      {"binder": "B13", "size of antigen-antibody complex": "~400"}
    ]}
  ]
}
